Laboratory results taken from a protein production outcome set (Wang et al. 2014).

Experiment: label from the status in PepcDB records
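Note: failed if final PepcDB status was selected cloned or expressed and not failed if soluble or beyond.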

Sequence	protein production
MRIYLIGFMCSGKSTVGSLLSRSLNIPFYDVDEEVQKREGLSIPQIFEKKGEAYFRKLEFEVLKDLSEKENVVISTGGGLGANEEALNFMKSRGTTVFIDIPFEVFLERCKDSKERPLLKRPLDEIKNLFEERRKIYSKADIKVKGEKPPEEVVKEILLSLEGNALGG	not failed
MLPFANYYISSPSVSEKNAINNNVNKRRKKKRAMMVYGGGGGGDDLAVVKAAAWAWYLRKEGKPIMREFDVTRAQRIPRPSRYKIEATKNMILSENRVLAENRVSSTKSPLWYTNYQFRGDQETYYSRLLDTYETKNISKRLNIDDSSFSTSLSSVLKHNGDDHHNHNRNDDYGFDDHGLLKKRNGSDSNTTTRSKTNNDKSYNGGFMKKVSKRSLWKGMIVMGPGSTVCGRSDDVASQAGRRTVKVAVAAEALVRSAASGSGKTQSGHC	failed
MVSDAALHGKLAVEHASDHLVVLAQADSGPITVDQFKEKLKEVQQEEQLGWLTAIGKYFIGIFQKGGEVFAGFVTGIIPTLVVLMTAFYAVTELVGEERVHGLARGAGRIALTRYTLLPLLAVFFLTNPMAYTFGSFLEEKHKPAFYDAAVSYVHPPLGLFPHINPGEYFVWGGILVALLELEKKGVVVAGYHVKVAIWYAIVGLVVILLKGMLTERITTIMARRQGVEL	failed
KIGYGKANPTTRLWVGGLGPNTSLAALAREFDRFGSIRTIDHVKGDSFAYIQYESLDAAQAACAKMRGFPLGGPDRRLRVDFAK	not failed
MDGYTGSHVVRCALRLAPLVFVRPGELRKAEWKDIDLDGGEWRYTVTKTNTPHIVPLSTQAVEILKELQALTGRSRFVFPGARTNGRPMSDNAILAALRRMGIDKEEMSGHGFRAMARTILDEVLGVRPDFIEHQLAHSVRDPLEHHHHHH	failed
MDYKPLAKEILKNIGTKSNVRSITHCVTRVRFVLNDESQANDEVIRDLDGVLDVVKQGGQYQVVIGPSVGSVYDAIIDVANFSDNVINSSEIAAPTSDETEEKGFLNKALGLISSIFIPVLGLLSGAGMIKAILSLCTVTGLLTAKSGTYIILSALGDTLFYFFPIVVGWSAARKFGLKEIYGVTLGAFLVYPTLATAASSTAVTTIFKGTIFALKYKMTFLGIPVALQSYSSTVIPIIIIVWFASYVYKYCDKVIPDVLKMVFVPFFTLLIAGVVSLIVIGPIAMILQNILSDTVLWLVGLNKGIAGFLLGFFWSILVMFGLHWAVIPFFAIDVAHYGYDVINPLIFAGGLAVLGSAIGVAIRARDERVKSMSVAAAISAFFGINEPALYGVLIPRKKVLLTSFLAAGIGGAIAGFSGSKLYSFGASGILGLPCFINPKGIDAGFIGLCISGIVAFVFALIAALIAGAKKDAKSKPAERHLAEHSDVYAPVAGESFDLTTVHDDVFSKLVLGDGIAVKPSDGKVYAPVTGIVRVAYPTGHAVGLASDDGEEVLIHIGIDTVNLEGKHFKMHVAQGMRVKKGDLLVDFDEAAISAAGYDTTVMMVVTKSERLKSVMPTQFGPVTKDTKVLDVELQSNSVESVTAVATND	failed
MICCLNPDCLNPLNPDGKKSCQSCGTTLVPLLRNRFRVVRVLSDEGGFGRTYLSEDKDKLNEPCVIKQLAPKFQGTWSQKKAVELFAEEAKRLQELGEHPQIPTLMAYFEQDNCLYLVQQFINGQNLLKELQQRKNYRPGEIQAILLDLLPVLKFIHDRGVIHRDIKPENIIRCRTDGRLNLIDFGSSKQLTAKVQNFGTSIGSHGYSPLEQIRDGKAYAASDLFALGATCFHLITSVSPFQLWMEHGYSWVSNWRQYLHSPLTPELDFVLDKLLQKDLKHRYTSADEVIKDITPKQPLALPAAGQTSGKIPVPQTTYLSKLPKKYSLLRSVVLLSALVLLFGFSESWFSQYLQIYSSLSARLTQNKSGQVVLAQPQKTTLRTISLANTLPDDENAFVSLAISPNGQIIASCGSDRTIKIWQLATGEDISSLKGHSRKVNAVVFSPDGKTLVSGGDDNTIKIWNLKTGKVIRTITGHSDAVHTLAISPNGKTLVSGSDDNTVKVWNLNTGRLINTLTGHTFWVRSVAISPDGVNIASGSFDKTVKIWNLETGTLTHTLAGNGETVTSIAFNPDGNTLASASRDRTIKIWKVGAGTRVRTLKGSTETITSIAFSPDGNTLASASRDQTIKLWNLETGKEIRTLEGHENTVTTVAFTPDGANLVSGSGDNTMRIWRIGN	failed
MKKFLFDLFPLILFFVAYRYADIYAATAVAITASIAQILWLRLTGKAIEGMHWINLSVIVIFGGATLWLHSDVFIKWKPTVLYWLFGGALLGARYLFGRNLVRRLLGKQIALPDPVWERLNLSWALFFVAAGAVNLYVAFSGHFTESQWVNFKVFGLMGLLVAFVIAQSLWLGKHLQASDTPDQDRNED	not failed
MQITIKVLKGKDCTIEVAPTSTILEVKHQIEAELQISATNQKLLLLGRPLNNEQTIASYPNIKEGTKLNLVVIKPCLRDSILRGFRKHYSEPLAERMTNEFMADFERKINEQSLDDLERLADSIVNRAAT	failed
MHRSIRFTFDDRVPRYWHAGRAHTTRFFDCLSFMFPQGEKIFIESVVHFRHKLDKDSALDKAVDDFIYQEASHMREHRAYNQRLCAQGAPVETLERMLLRRRKESARLPASFRLALTASLEHITAILSDQLLRNPAYLKNADPTMAGLWRWHALEEIEHKAVAYDVLCTVERNPLWRYLLRCVAMLSLSVYFTFDLGYFTYHLVRGDKQHRNWREWLRLQWWLFVNPGLLSRIVPAGLFWFVPGFHPNRIDTRALLDTARQALDEQR	failed
SNRMTEMHVCLADAIQKDNRPEISNRLFRSNAVEKEILRVQKLLKNAKLAWMFTNCFPNTLDTTVHFRKGSDGKPDTFVYTGDIHAMWLRDSGAQVWPYVQLANSDPELKEMLAGVILRQFKCINIDPYANAFNDGAIPDGHWMSDLTDMKPELHERKWEIDSLCYPLRLAYHYWKTTGDASIFNEEWIQAITNVLKTFKEQQRKDGVGPYKFQRKTERALDTVSNDGLGAPVKPVGLIVSSFRPSDDATTLQFLVPSNFFAVSSLRKAAEILEKVNKKTALSKECKDLAQEVETALKKYAVYNHPKYGKIYAFEVDGFGNHHLMDDANVPSLLAMPYLGDVNVNDPIYQNTRRFVWSEDNPYFFKGKAGEGIGGPHIGYDMVWPMSIMMKAFTSQNDAEIKTCIKMLMDTDAGTGFMHESFHKDNPKKFTRAWFAWQNTLFGELILKLVNEGKVDLLNSIQ	not failed
LNLPYDEHADAWTQVKKALAAGKRTHKPTLLVFGANWCTDCRALDKSLRNQKNTALIAKHFEVVKIDVGNFDRNLELSQAYGDPIQDGIPAVVVVNSDGKVRYTTKGGELANARKMSDQGIYDFFAKITETRGV	failed
MTETHQQLMKLPVNQVFFKYFVPATLGLILMSANILIDGLFVGNGIGTAALAGVNLSYPVISLIMAIALWIGIGGATKYSISIGENRPKKASSIFSLALFLALIISVLLGVFGILNIQTISIWLGANSDTSSFVIEYLSVMFLFGWVITLEQVLSIFVRNDGSPKLSMMALATTSIVNIILNFYTIMILDMGVTGAAISTVLGGFAGLLVLSLHFFNRQAQLRRPAFQWSWKSLMHIFAIGFPSFLAEAGLLVFVTGYNLAMASLAGTEGVAAFSVINYLHGFMFLSFFGIEMALQPMISYYHGAEETEQIKSSMKIGEKTAVILGILLLVIGWGAAPFLVGLFGIESTEIQQLAIDGIRLFFIGYTFLGYNFVYMSYFQSIGRAGSSVVIIILRSFVSLFILLWILPKFIGVTGVWLSLPLSEFFVAVLLFFIARKHVMGKGNPAIGKG	failed
MSLTSSAELAEVDTLARSLLLYRSRLSEYAHANPGFSGSPADSALGLPAWFRKPVRLQGYIAAGTSYAFIASPPAGLAAAVDAGTESDLVGVRRNGQLVTRRLGAIAIALPAPIPEGAVVAVKEGHHHHHH	not failed
MLERILEPEVMDTEAEAMDYDAMDFQAVNLAFAQRACQLGPSKATVLDAGTGTARIPILLAQLRPAWQITAIDFARSMLAIAKENVIAAGCETQICLEFVDAKQLPYANGSFDGVIANSLCHHLPRPLDFLREVKRVLKPHGFLLIRDLIRPESPEKLADFVTAIGSDYNDQQRKLFADSLHASLTIAEIQDYLQHLGWVGDDGPNLELHLYQSSDRHWTLEKKFQSSTIVQR	failed
MGKRMLSMFHPFEIALCGLSGSGKTTLLEKLIRRFSTDGFEVAAFKHGCHRFDIDREGKDSDRFRRAGAVPVLIVDREKEALISSGTGRLDIAGLTLNADLLFIEGFKELPVPKVLLIDERREILPSLESGAIPEVLALAHDGDAEDMERFGLPLFHRDDVARISDFSAEFFRRAAQSVPLNGLVLAGGRSLRMGRDKAQLRYHEASQLDRTAALLGGVCNEVFISCRSDQLDQYSDARLPGIADSYLDLGPLGGLLSAQRHAPGAAWLVAACDLPFIDEAVIAALRAGRHPFRFGTAFAGSDGRPEPLLAIYEPKSRRRLLERHASGNDSLRAFLMNSRVQFIEPNDASKLRNVNDPAAMDDALRAISKGGQLEHHHHHH	failed
MELFEFLLIKYGYIALILILTGGIVGLPIPDEVLLTLVGYYISLGKMSYVLALLASFLGATLGISISYFLGTKLGLPFLMKYGPKFHISHQKIDHAQALFRKYGPILLFIGYFLPGVRHVTGYLSGLSKCKFRTFSLYAYTGAFIWCLVFITLGHEIGNKWYIVEKYLFKSSFLLFLLILCVIGYFIVRNKRMEKNAEKK	failed
MLASIISILRVFVLLFNTPLFIFAFLPVGFLGYFILQAYAKNPLFPKLWLVLASLFFYAFWNVKYLPLLVGSIVFNYFVALKIHQTQPNAYKRLWLILGLIANVSLLGFFKYTDFFLTNFNLIWKSHFETLHLILPLAISFFTLQQIAYLMDTYKQNQIMQPKMRERVSENAPILLNPPTSFFSLSHFLDYALFVSFFPQLIAGPIVHHSEMMPQFKDKNNQYLNYRNIALGLFIFSIGLFKKVVIADNTAHFADFGFDKATSLSFIQAWMTSLSYSFQLYFDFSGYCDMAIGIGLFFNIKLPINFNSPYKALNIQDFWRRWHITLSRFLKEYLYIPLGGNRVKELIVYRNLILVFLIGGFWHGAGWTFIIWGLLHGIALSVHRAYSHATRKFHFTMPKILAWLITFNFINLAWVFFRAKNLESALKVLKGMVGLNGVSLCHLSKEASEFLNRVNDNMIMHTIMYASPTFKMCVLMIIISFCLKNSSHLYQSNQMDWIKTTSACLLLSIGFLFIFASSQSVFLYFNF	failed
MAGNSLVLPIVLWGRKAPTHCISSILLTDDGGTIVTGCHDGQICLWDVSVELEVNPRALLFGHTASITCLSKACASGDKRYTVSASANGEMCLWDVNDGRCIEFTKLACTHTGIQFYQFSVGNQQEGRLLCHGHYPEILVVDATSLEVLYSLVSKISPDWISSMSIIRSQRTQEDTVVALSVTGILKVWIVTSEMSGMQDTEPIFEEESKPIYCQNCQSISFCAFTQRSLLVVCSKYWRVFDAGDYSLLCSGPSENGQTWTGGDFVSADKVIIWTENGQSYIYKLPASCLPASDSFRSDVGKAVENLIPPVQHSLLDQKDKELVICPPVTRFFYGCKEYLHKLLIQGDSSGRLNIWNIADIAEKQEADEGLKMTTCISLQEAFDKLKPCPAGIIDQLSVIPNSNEPLKVTASVYIPAHGRLVCGREDGSIIIVPATQTAIVQLLQGEHMLRRGWPPHRTLRGHRNKVTCLLYPHQVSARYDQRYLISGGVDFSVIIWDIFSGEMKHIFCVHGGEITQLLVPPENCSVSRFI	failed
QGSVSTNLQEKGLVVSIVDTLMFDTGRAEVKPDFQKKLVEIGEILKTIDNYIRIEGHTDNTPISNSQYASNIELGSARSNNVEHLFIDVSKIPVTQMYTVSYADTRPVADNNSEAGKARNRRVDIVILNSK	failed
